For data set [1] the following is noted: in vivo; cited from earlier work.
For data set [2], the target named is T1, human GLP-1 receptor (human, UniProt P43220 24-463).
T1 construct: whole, on cells; also called hGLP-1R; hGLP-1 receptor
The data set is described as follows: displacement of [125I]GLP-1 from hGLP-1R HEK-293 membranes, SPA. For orientation: In a radioligand displacement assay an active substance lowers the binding of a labelled ligand.

The target of data set [3] is T2, human GIP receptor (human, UniProt P48546 22-466).
T2 construct: whole, on cells; also called hGIPR; hGIP receptor
T2 sequence (looked up): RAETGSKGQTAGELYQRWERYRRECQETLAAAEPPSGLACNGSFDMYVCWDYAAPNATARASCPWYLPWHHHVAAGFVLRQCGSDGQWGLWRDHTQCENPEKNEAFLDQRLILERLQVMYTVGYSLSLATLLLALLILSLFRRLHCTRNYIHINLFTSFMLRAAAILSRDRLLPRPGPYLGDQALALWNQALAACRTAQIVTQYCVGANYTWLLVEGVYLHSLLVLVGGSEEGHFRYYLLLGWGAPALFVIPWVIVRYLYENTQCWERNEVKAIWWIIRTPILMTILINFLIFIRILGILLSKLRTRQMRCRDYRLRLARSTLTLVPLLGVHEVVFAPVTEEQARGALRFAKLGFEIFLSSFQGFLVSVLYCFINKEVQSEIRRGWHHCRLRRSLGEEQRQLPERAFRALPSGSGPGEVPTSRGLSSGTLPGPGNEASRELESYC
The data set is described as follows: displacement of [125I]GIP from hGIPR HEK-293 membranes, SPA.

In data set [4] the target is T2, human GIP receptor. Kind of data set: cell-based or functional assay.
Data set [5] concerns the target T1, human GLP-1 receptor. The data set is described as follows: cell-based or functional assay.
In data set [6] the target is T2, human GIP receptor. The data set is described as follows: cell-based or functional assay. The source holds these as a separate data set.

*1 amine or outer side, *2 acyl side, *3 side chain or, on linkers, in order; H or OH if unused. Where no end group is shown, it is not given here. Side-chain parts run from the residue outwards. [ ]: non-standard residue; d: D form. The star is where a group is joined. C18 diacid = O=C(O)CCCCCCCCCCCCCCCCC(=O)*; γGlu = O=C(O)[C@H](CCC(=O)[*:2])N[*:1]; AEEA = NCCOCCOCC(=O)O; Aib = CC(C)(N)C(=O)O

Data on two molecules can be found in patent US20230103631A1, “PEPTIDES AS SELECTIVE GIP RECEPTOR AGONISTS” (Sanofi, priority 2020, published 2023).

With `CC[C@H](C)[C@H](NC(=O)[C@H](CO)NC(=O)[C@H](Cc1ccc(O)cc1)NC(=O)[C@H](CC(=O)O)NC(=O)[C@H](CO)NC(=O)[C@@H](NC(=O)[C@H](Cc1ccccc1)NC(=O)[C@@H](NC(=O)CNC(=O)[C@H](CCC(=O)O)NC(=O)[C@H](C)NC(=O)[C@@H](N)Cc1ccc(O)cc1)[C@@H](C)O)[C@@H](C)CC)C(=O)N[C@@H](C)C(=O)N[C@@H](CCSC)C(=O)N[C@@H](CC(=O)O)C(=O)N[C@@H](CCCCN)C(=O)N[C@H](C(=O)N[C@@H](Cc1c[nH]cn1)C(=O)N[C@@H](CCC(N)=O)C(=O)N[C@@H](CCC(N)=O)C(=O)N[C@@H](CC(=O)O)C(=O)N[C@@H](Cc1ccccc1)C(=O)N[C@H](C(=O)N[C@@H](CC(N)=O)C(=O)N[C@@H](Cc1c[nH]c2ccccc12)C(=O)N[C@@H](CC(C)C)C(=O)N[C@@H](CC(C)C)C(=O)N[C@@H](C)C(=O)N[C@@H](CCC(N)=O)C(=O)N[C@@H](CCCCN)C(=O)NCC(=O)N[C@@H](CCCCN)C(=O)N[C@@H](CCCCN)C(=O)N[C@@H](CC(N)=O)C(=O)N[C@@H](CC(=O)O)C(=O)N[C@@H](Cc1c[nH]c2ccccc12)C(=O)N[C@@H](CCCCN)C(=O)N[C@@H](Cc1c[nH]cn1)C(=O)N[C@@H](CC(N)=O)C(=O)N[C@H](C(=O)N[C@H](C(=O)N[C@@H](CCC(N)=O)C(=O)O)[C@@H](C)O)[C@@H](C)CC)C(C)C)[C@@H](C)CC` [SEQ ID NO: 1, GIP (glucose-dependent insulinotropic polypeptide)], the half-life (commonly the time needed for the level to fall by half in the phase considered) in data set [1] was 2 min.

B1: SEQ ID NO: 9 (peptide)
peptide: Y[Aib]EGTFISDLSI[Aib]K([AEEA-AEEA-γGlu-C18 diacid])DRIHQEEFIEWLLAQGPSSGAPPPS-NH2
modifications: N-terminus assumed
SMILES: CC[C@H](C)[C@H](NC(=O)[C@H](Cc1ccccc1)NC(=O)[C@H](CCC(=O)O)NC(=O)[C@H](CCC(=O)O)NC(=O)[C@H](CCC(N)=O)NC(=O)[C@H](Cc1c[nH]cn1)NC(=O)[C@@H](NC(=O)[C@H](CCCNC(=N)N)NC(=O)[C@H](CC(=O)O)NC(=O)[C@H](CCCCNC(=O)COCCOCCNC(=O)COCCOCCNC(=O)CC[C@H](NC(=O)CCCCCCCCCCCCCCCCC(=O)O)C(=O)O)NC(=O)C(C)(C)NC(=O)[C@@H](NC(=O)[C@H](CO)NC(=O)[C@H](CC(C)C)NC(=O)[C@H](CC(=O)O)NC(=O)[C@H](CO)NC(=O)[C@@H](NC(=O)[C@H](Cc1ccccc1)NC(=O)[C@@H](NC(=O)CNC(=O)[C@H](CCC(=O)O)NC(=O)C(C)(C)NC(=O)[C@@H](N)Cc1ccc(O)cc1)[C@@H](C)O)[C@@H](C)CC)[C@@H](C)CC)[C@@H](C)CC)C(=O)N[C@@H](CCC(=O)O)C(=O)N[C@@H](Cc1c[nH]c2ccccc12)C(=O)N[C@@H](CC(C)C)C(=O)N[C@@H](CC(C)C)C(=O)N[C@@H](C)C(=O)N[C@@H](CCC(N)=O)C(=O)NCC(=O)N1CCC[C@H]1C(=O)N[C@@H](CO)C(=O)N[C@@H](CO)C(=O)NCC(=O)N[C@@H](C)C(=O)N1CCC[C@H]1C(=O)N1CCC[C@H]1C(=O)N1CCC[C@H]1C(=O)N[C@@H](CO)C(N)=O
notes: Exendin-4 derived synthetic lipidated peptide of formula I
On to B1, for which the IC50 (as a rule, the point on the concentration scale where inhibition reaches its midpoint) in data set [2] is 307 nM. Also, in data set [3], the IC50 came to 0.9 nM. Further, in data set [4], the “hGIPR EC50, cAMP in human adipocytes” value is 1.4 nM and the “hGIPR Emax, cAMP in human adipocytes” value came out at 125%. Further, in data set [5], the “EC50 hGLP-1R 0% HSA, cAMP in HEK-293 cells” value is above 10 nM. In data set [6], the “EC50 hGIPR 0% HSA, cAMP in HEK-293 cells” value stood at 0.00019 nM and the “EC50 hGIPR 0.1% HSA, cAMP in HEK-293 cells” value came out at 0.00194 nM.
